Holding throughout (experiment): purified protein
Holding throughout (settings): 40°C, pH 5.6, 50 mM sodium acetate

Substrate in data set [1]: O=[N+]([O-])c1ccc(O[C@@H]2O[C@H](CO)[C@@H](O[C@@H]3O[C@H](CO)[C@@H](O)[C@H](O)[C@H]3O)[C@H](O)[C@H]2O)cc1
The class given is biochemical, uncultured bacterium LAB25.

Substrate in data set [2]: O=[N+]([O-])c1ccc(O[C@@H]2O[C@H](CO)[C@@H](O)[C@H](O)[C@H]2O)cc1
Substrate in data set [3]: O=[N+]([O-])c1ccc(O[C@@H]2O[C@H](CO)[C@@H](O[C@@H]3O[C@H](CO)[C@@H](O)[C@H](O)[C@H]3O)[C@H](O)[C@H]2O)cc1
The data set is classed as biochemical, uncultured bacterium LAB20.

Substrate in data set [4]: O=[N+]([O-])c1ccc(O[C@@H]2O[C@H](CO)[C@@H](O[C@@H]3O[C@H](CO)[C@@H](O)[C@H](O)[C@H]3O)[C@H](O)[C@H]2O)cc1
The data set is classed as biochemical, uncultured bacterium SRF2.

B1: LAB25g2 (uncultured bacterium LAB25) (protein)
chain: MKKLLTICFVATTFGMTMNAQPKLSADNIDEVLKAMTLEEKAKLLVGGANNFFSANAVVGGEATLVAGAAGTTPEIARLGIPATVLTDGPAGVRINPTRRGTDQTFYATAFPIGSCLASTWNTELVGQVGQAIGNETKEYRCDVILGPGMNLHRNPLCGRNFEYYSEDPFLTGKIAAAYINGVQKEDVGVSAKHFAVNSQETDRTSVDERLSQRAAREIYLRGFEIAVRESNPWTIMASYNIINGTHAMGNRDLLTSILRDDWGYKGIVMTDWIGIRQGLTTISEVQAGNDLMEPGQPAQVQEIIDGVKNGKLAIADVDRNVRRMLEYIVKTPSFRKYPASNKPDFTAHAAITRQSANEGIVLLKNNGTLPWKNIKSVALFGENSYDFLSGGTGSGCVHPPYVVDMLEGLKNAGIKSSETLTDIYRKYIAYARVKFQAERHPAKWFQTEAMGQQKYPEISLSPIAVEKEVRGADAAIITIGRQAGEGIDRDIETEFNLIPEERQLIFDVCQAFHAAGKPVVVIINSGSVIETASWSGYPDAILCAWQPGMEGGNSIADLLTGKVNPSGKLTMTWPIAATDHASTKNFPGALDDYSLMQMLGNGQPIPGHAYTNHEEDIYVGYRFFDTFKRDVAYPFGYGLSYTTFEYSKPVVKAKGQTVEVSITVKNSGSVSGKEVAQVYVAAPKGRLEKPAQELKAFAKTRELQPGESQTLTMTIPVRNLASFDEANSQWLTEAGTYTFRIGANSRDIRCTAEAKLAEYTEQTSNALAPKQKLNLLKQ
notes: gene 2340 bp (779 residues calculated), full ORF from ATG with native signal region in pET-41 Ek/LIC, E. coli BL21(DE3), Ni-NTA, tags removed by enterokinase
B1: in “purified protein [1]”, the Km amounted to 390 ± 30 µM, the kcat amounted to 0.17 ± 0.36 s⁻¹ and the kcat/Km was determined as 438 M⁻¹ s⁻¹. In “purified protein [2]”, the Michaelis-Menten constant (Km) came to 450 ± 60 µM, the turnover number (kcat) came out at 0.41 s⁻¹ and the kcat/Km stood at 920 M⁻¹ s⁻¹.

B2: LAB20g4 (uncultured bacterium LAB20) (protein)
chain: MKKIMLLSATVLALAGCKGDPQLGKDSVDKVLKAMTLEEKVHFVIGTGMAGFGGESAVVGATKNIVPGAAGTTYPIERLGIPSIVLADGPAGLRIDPTREGDENTYYCTHFPIGTLLASTWNQELVESVGKAMGEEVHEYGADVYLAPALNIHRHPLNGRNFEYYSEDPVVAGKTAAAYVRGVQSNDVGTSIKHFAYNNQETNRTGNNAVISPRAQREIYLKGFEITVKESDPWTVMSSYNKINGTYTSQSRDLITTVLRDEWGFKGLVMTDWFGGDNGAEQIAAGNDMLQPGTDLQYQQIMDAIKDGSLSEDELNICVRRCLELVARSPKAKGYAYSNKPDLKAHAAVTRQSALEGMVLLENNGVLPLKDVKNVAVFGCTSFDFIAGGTGSGNVNRAYTVSLLDGLKNAGFNVDESNKEATLKHIADEDAAFKASLTDQLSAFYPTPRPSELVPSAAELAASARANDVAIITFGRNSGEFFDRTSADFSLSAKEKELLAKVTAAFHAKGKKVVVVLNVGGVIETASWKSVPDAILLAWQAGQEGGNSVTDILTGAKSPSGKLPMTFPVNLMDHASSANFPIDSDTGVYFTNRREDVGQKDVDVTKYEEGIYVGYRWFDKQNLPVSYPFGYGLSYTTFEYSAPAVANDGKTVTAKVTVKNTGSVAGKEAVQLYVSAPAGTLDKPVKELKAYGKTKELAPGESQELTLTFPTSELASFDEEASAWKVDAGTYTFQFGASSRDVRCTATAEAAASETPANRVLLMK
notes: gene 2295 bp (764 residues calculated), full ORF from ATG with native signal region in pET-41 Ek/LIC, E. coli BL21(DE3), Ni-NTA, tags removed by enterokinase
Turning to B2, in the data set “purified protein [3]”, the Km amounted to 1470 ± 130 µM, the catalytic constant (kcat) stood at 0.12 ± 0.2 s⁻¹ and the catalytic efficiency (kcat/Km) worked out at 82.7 M⁻¹ s⁻¹. Besides, in the data set “purified protein [2]”, the Km was 30 ± 3 µM, the kcat was found to be 0.88 s⁻¹ and the kcat/Km was found to be 29500 M⁻¹ s⁻¹.

B3: SRF2g18 (uncultured bacterium SRF2) (protein)
chain: MRKSIHQISLVILAVVAMCGYSLRMKAQQLKAENIDEVVKAMTLEEKCHMVLGRGMHFNDEAKFPGTAGSTFSIARLGVPETYCADSQQGLRMNATRAWDHNDYYPTDFVASMTLASTWDREAAFKVGQGIGNEVREFGLDWILSPAMNLIRNPLCGRNHEYYSEDPYLSGTIAAGYVNGVQSEGTAACPKHFVANNQETNRNNNVSQVSQRALREIYLKAFEIMVKESNPWTIMTSYNKLNGPYAVQNHDLLTTIVRNEWGWKGMYVSDWNAGDDAVAAMLAGNDMLQPGQDKQYQAILEAAQSGKLPMEVIDANVKRILEYVVKTHNFKGYKYNNEPDLKAHAKVVREVGADGIVLLKNSGVLPLVGKRVALFGCTSYDWISGGSGFGGTSVGHYTVSLIEGMRSVGYEIYKPLIAAYTQHIAAEEKRLFPNGRPAFSLMPPARADEKQFTADELNAAIEGSDVAIISLGRKSGEAADRSESDFYLKDGEAQLIKAVSDAYHAKGKQVVVLLDICSPIDVASWQNQVDALVCTWQGGQESGFSVADVLSGKVNPSGKLPMTFQIKYGDAYADKNFPANVDDKTLGAMFMWGYDKDNTPKERQLQANIDFTNYEEDIYVGYRYFDSFSKPVAYPFGFGLSYTTFAYENLSVSETDGVFTVKVDVKNTGNKAGRNVVELFVAAPNSKQLNKPEKELRNYAKTSLLKPGQTETVIMLVKTEDLASFNEKASAWKTDAGVYTFMICSSANQIEVQTSAKVKAWTKKVNNVMKPKLKLNLLKR
notes: gene 2343 bp (780 residues calculated), full ORF from ATG with native signal region in pET-41 Ek/LIC, E. coli BL21(DE3), Ni-NTA, tags removed by enterokinase
In the case of B3, in the data set “purified protein [4]”, the Km was 480 ± 72 µM, the kcat was determined as 0.11 ± 0.22 s⁻¹ and the kcat/Km amounted to 232 M⁻¹ s⁻¹. Moreover, in “purified protein [2]”, the Km is 1730 ± 4 µM, the kcat came out at 0.27 s⁻¹ and the kcat/Km was 159 M⁻¹ s⁻¹.

B4: SRF2g14 (uncultured bacterium SRF2) (protein)
chain: MKKTLFFAFGMATLMMGCTSADKVTKNTLNQEEVMNRLSLEDKAHFVIGVGMAGFSGDDAVIGATKNLVPGAAGTTYPLDSLGIPAVVLADGPAGLRIDATREGDSATYYCTHFPIGTLLASTWNQKLVEEVGQAIGEEVKEYGADVLLAPALNIMRNPLCGRNFEYYSEDPVVAGKTASAYITGVQKNDVGTSIKHFAANNQETNRMNTDAHISQRALREIYLKGFEIAIKESKPWTVMTSYNYINGVYTSESKDLVQTILRDEWGYEGTVMTDWFGGKDGAKQMWAGNDMLQPGKAEQFDSIVAGVKSGKLDEADLDRNIQRILNLVEKSPRFQGYQYSNKPDLKAHAAVTRQSAAEGMVLMKNNEVLPLKENVKNVALYGCTSYDFIAGGTGSGNVNHAYVVSLLDGLKNGGYNVSDELKSAYEKYIADCKEARKKEIEEMAKKDKQAAMLARFMPGTLPAEKQFSSEELAKQADASDLAVITIGRISGEFLDRKAADFNLNDSEMKLIQQVCEVYHKVGKQVVVLLNIGGVIETASWKELPDAILCAWQAGQEGGNSVVDVLSGKQSPSGKFTMTWPVKFTDAYSSKNFPIDEDPKIDMMNQGQKGNVKNVDYADYEEDIYVGYRYFDSFDVPVSYPFGFGLSYTTFEYSDAKISQKNDIYDVTVTVKNTGKFEGKEVVELYISAPDNKAANKPSKELKAFAKTRSLKPGESETLTLSVTAPELASFDEAASAWVVAEGEYQFLVGASSQDIKATLTANAKSFQIKVNDVMKPQVQMNLLKR
notes: gene 2361 bp (786 residues calculated), full ORF from ATG with native signal region in pET-41 Ek/LIC, E. coli BL21(DE3), Ni-NTA, tags removed by enterokinase
Consider B4, for which, in “purified protein [4]”, the Km was found to be 480 ± 54 µM, the kcat turned out to be 0.19 ± 0.36 s⁻¹ and the kcat/Km was 416 M⁻¹ s⁻¹. Moreover, in “purified protein [2]”, the Km came out at 34 ± 3 µM, the kcat is 0.37 s⁻¹ and the kcat/Km was 10800 M⁻¹ s⁻¹.

For the origin of these results see publication PMC3477023, “Microbial β-glucosidases from cow rumen metagenome enhance the saccharification of lignocellulose in combination with commercial cellulase cocktail” (Biotechnology for Biofuels, 2012).
